Laboratory results from publication PMC3597040.

What was measured:
[1] = biological target: AfTrax (Archaeoglobus fulgidus Trax homologue, AF2260), wild type (Archaeoglobus fulgidus); assay: SEC
[2] = biological target: AfTrax (Archaeoglobus fulgidus Trax homologue, AF2260), wild type (Archaeoglobus fulgidus); assay: crystal structure
[3] = biological target: AfTrax D114A catalytic mutant (Archaeoglobus fulgidus); assay: crystal structure

stoichiometry N [1] | stoichiometry N [2] | stoichiometry N [3] | Substance
8 | 8 | – | AfTrax (Archaeoglobus fulgidus Trax homologue, AF2260), wild type (natural protein)
– | – | 8 | AfTrax D114A catalytic mutant (natural protein)
